Assay results taken from patent US20230324404A1 (Takeda / Millennium, published 2023).
Numbering of substitutions follows the chain as printed.

B1: Anti-ZIKV #3 (Clone 270-12) (antibody, V domains shown)
VH: QAQLEESGGDLVKPEGSLTLTCTASGFSFTDRHYMCWVRQAPGKGLEWIACVYPGSSGSTYYASWARGRFTISKTSSTTVTLRMTSLTAADTATYFCARSSYPDSSGYSYGMDLWGPGTLVTVSS
VL: DIVMTQTPASVEAAVGGTVTIKCQASQDINSNLAWYQQKPGQRPKFLMYLTSKLASGVPSRFRGSGSGTQFTLTISDLECADAATYYCQTYYDISNYGYAFGGGTEVVVKG
B2: Anti-ZIKV #2 (Clone 242-3) (antibody, V domains shown)
VH: B1 VH with V38I
VL: B1 VL with D28N
B3: Anti-ZIKV #6 (IgG2c kappa, Clone ZV-67) (antibody, V domains shown)
VH: QAQLQQSGTGLARPGASVKLSCKASGYTFTSYGISWVTQRAGQGLEWIGVIYPRSGNTYYNEKFRGKATLTADKSSSSAYMELRGLTAEDSAVYFCARENYGSVYWGQGTTLTVSS
VL: DIVMTQSQKFMSTSVGDRVSITCKASQNVGTAVAWYQQKPGQSPKLLIYSASNRYTGVPDRFTGSGSGTDFTLTISNMQSEDLADYFCQQFSSYPYTFGGGTKLEIK
B4: Anti-ZIKV #7 (IgG2a kappa, Clone ZKA-64) (antibody, V domains shown)
VH: QVQLVQSGAEVKKPGASVKVSCKASGYTFTGYHIDWVRQARGQGLEWMGRINPNSGGTNYAQKFQGRVTMTRDTSISTAYMQLSRLRSDDSAVYYCARMSSSIWGFDHWGQGTLVTVSS
VL: EIVMTQSPATLSVSPGERATLSCRASQSVLINLAWYQQKPGQAPRLLIYGASSRATGIPARFSGSGSGTEFTLTISSLQSEDFAVYYCQQYNDWPPITFGQGTRLEIK
B5: Anti-ZIKV #5 (Clone 306-2) (antibody, V domains shown)
VH: QSLEESGGDLVKPGASLTLTCTASGFDFSDRYYMCWVRQAPGKGLEWIGCIYVGSGDTYYASWAKGRFTISRTSSTTVTLQMTRLTAADTATYFCARHPGTYFTLWGPGTLVTVSS
VL: DVVMTQTPSSVSAAVGGTVTINCQASQNIVNNLAWYQQRPGQPPKLLIYDTSTLASGVPSRFKGSGSGTEFTLTISDLECADAATYYCQTYYYYNKIINGFGGGTEVVVKG
B6: Anti-ZIKV #4 (Clone 289-3) (antibody, V domains shown)
VH: QEELEESGGDLVKPGASLTLTCKASGFSFSSGAYICWVRQAPGKGPEWIACIYTGDGRTYYANWAKRRFTISSSSSTTVALEMPSLTDADTATYFCARAIAVGAGYGVGNYFTLWGPGTLVTVSS
VL: DIVMTQTPSSVSAAVGGTVTINCHASENIYGYLSWYQQKPGQPPKLLIYKASTLASGVPSRFKGSGAGTQFTLTITALECADAATYYCQSYYTSSSNADGSENAFGGGTEVVVEG
B7: Anti-ZIKV #9 (Clone 181-4) (antibody)
heavy: QAQLEESGGDLVKPEGSLTLTCTASGFSFTDRHYMCWVRQAPGKGLEWIACVYPGSSGSTYYASWARGRFTISKTSSTTVTLRMTSLTAADTATYFCARSSYPDSSGYSYGMDLWGPGTLVTVSSGQPKAPSVFPLAPCCGDTPSSTVTLGCLVKGYLPEPVTVTWNSGTLTNGVRTFPSVRQSSGLYSLSSVVSVTSSSQPVTCNVAHPATNTKVDKTVAPSTCSKPTCPPPELLGGPSVFIFPPKPKDTLMISRTPEVTCVVVDVSQDDPEVQFTWYINNEQVRTARPPLREQQFNSTIRVVSTLPIAHQDWLRGKEFKCKVHNKALPAPIEKTISKARGQPLEPKVYTMGPPREELSSRSVSLTCMINGFYPSDISVEWEKNGKAEDNYKTTPAVLDSDGSYFLYSKLSVPTSEWQRGDVFTCSVMHEALHNHYTQKSISRSPGK
light: DIVMTQTPASVEAAVGGTVTIKCQASQNINSNLAWYQQKPGQRPKFLMYLTSKLASGVPSRFRGSGSGTQFTLTISDLECADAATYYCQTYYDISNYGYAFGGGTEVVVKGDPVAPTVLIFPPAADQVATGTVTIVCVANKYFPDVTVTWEVDGTTQTTGIENSKTPQNSADCTYNLSSTLTLTSTQYNSHKEYTCKVTQGTTSVVQSFNRGDC
B8: Anti-ZIKV #10 (Clone 329-2) (antibody)
heavy: B7 heavy
light: B7 light
B9: Anti-ZIKV #8 (Clone 260-2) (antibody)
heavy: B7 heavy with S124P
light: B7 light
B10: Anti-ZIKV #11 (Clone 11-3) (antibody, V domains shown)
VH: QEQLVESGGGLVQPEGSLTITCTGSGFSFSSRFYMCWVRQAPGKGLEWIACIYGGSSGSTYYASWAKGRFTISKTSSTTVTLQISSLTAADTATYFCARGGSTAAAGFNLWGPGTLLTVSS
VL: DVVMTQTPASVSATVGGTVTIKCQASEDIYNLLAWYQQKPGQPPKLLIYYASTLASGVPSRFKGSGSGTEFTLTISDLECADAATYYCQCNDYGGTYVPNAFGGGTEVVVKG

These binders were tested against T1, ZIKV VLP (zika virus like particle, isolate Z1106033) (Zika virus isolate Z1106033 (Suriname, …, UniProt A0A024B7W1 123-794)) (assay: not given).
T1 construct: also called zika VLP; ZIKV VLPs

Binder | EC50
B1 | 0.061 µg/mL
B2 | 0.044 µg/mL
B3 | 0.134 µg/mL
B4 | 0.423 µg/mL
B5 | 0.066 µg/mL

These binders were tested against T2, DENV2 VLP (strain Thailand/16681/84) (Dengue virus serotype 2 strain …) (assay: microsphere immunoassay, DENV2 VLP-coupled microspheres).
T2 construct: also called dengue-2 virus like particle

Binder | binding result
B1 | no binding (tested: 0.001 to 20 µg/mL)
B2 | no binding (tested: 0.001 to 20 µg/mL)
B3 | no binding (tested: 0.001 to 20 µg/mL)
B4 | no binding (tested: 0.001 to 20 µg/mL)
B6 | no binding (tested: 0.001 to 20 µg/mL)
B5 | no binding (tested: 0.001 to 20 µg/mL)

The binders below were run against T3, DENV1 VLP (strain Puerto Rico/US/BID-V853/1998) (Dengue virus serotype 1 strain Puerto …) (assay: microsphere immunoassay, DENV1 VLP-coupled microspheres, 120 min incubation).
T3 construct: also called dengue-1 virus like particle

Binder | binding result
B7 | no binding (tested: 0.001 to 20 µg/mL)
B8 | no binding (tested: 0.001 to 20 µg/mL)
B9 | no binding (tested: 0.001 to 20 µg/mL)
B10 | no binding (tested: 0.001 to 20 µg/mL)

Each binder was assayed against T4, DENV3 VLP (strain Sri Lanka D3/H/IMTSSA-SRI/2000/1266) (Dengue virus serotype 3 strain Sri …) (assay: microsphere immunoassay, DENV3 VLP-coupled microspheres).
T4 construct: also called dengue-3 virus like particle

Binder | binding result
B1 | no binding (tested: 0.001 to 20 µg/mL)
B2 | no binding (tested: 0.001 to 20 µg/mL)
B3 | no binding (tested: 0.001 to 20 µg/mL)
B4 | no binding (tested: 0.001 to 20 µg/mL)
B6 | no binding (tested: 0.001 to 20 µg/mL)
B5 | no binding (tested: 0.001 to 20 µg/mL)

The binders below were run against T4, DENV3 VLP (strain Sri Lanka …) (assay: microsphere immunoassay, DENV3 VLP-coupled microspheres, 120 min incubation).

Binder | binding result
B7 | no binding (tested: 0.001 to 20 µg/mL)
B8 | no binding (tested: 0.001 to 20 µg/mL)
B9 | no binding (tested: 0.001 to 20 µg/mL)
B10 | no binding (tested: 0.001 to 20 µg/mL)

Each binder was assayed against T2, DENV2 VLP (strain Thailand/16681/84) (assay: microsphere immunoassay, DENV2 VLP-coupled microspheres, 120 min incubation).

Binder | binding result
B7 | no binding (tested: 0.001 to 20 µg/mL)
B8 | no binding (tested: 0.001 to 20 µg/mL)
B9 | no binding (tested: 0.001 to 20 µg/mL)
B10 | no binding (tested: 0.001 to 20 µg/mL)

Each binder was assayed against T5, DENV4 VLP (strain Dominica/814669/1981) (Dengue virus serotype 4 strain …, UniProt P09866 114-732) (assay: microsphere immunoassay, DENV4 VLP-coupled microspheres, 120 min incubation).
T5 construct: also called dengue-4 virus like particle

Binder | binding result
B7 | no binding (tested: 0.001 to 20 µg/mL)
B8 | no binding (tested: 0.001 to 20 µg/mL)
B9 | no binding (tested: 0.001 to 20 µg/mL)
B10 | no binding (tested: 0.001 to 20 µg/mL)

Each binder was assayed against T3, DENV1 VLP (strain Puerto …) (assay: microsphere immunoassay, DENV1 VLP-coupled microspheres).

Binder | binding result
B1 | no binding (tested: 0.001 to 20 µg/mL)
B2 | no binding (tested: 0.001 to 20 µg/mL)
B3 | no binding (tested: 0.001 to 20 µg/mL)
B4 | no binding (tested: 0.001 to 20 µg/mL)
B6 | no binding (tested: 0.001 to 20 µg/mL)
B5 | no binding (tested: 0.001 to 20 µg/mL)

Molecular target: T1, ZIKV VLP (zika virus like particle, …)
Assay: not given
Remark: another data set of the same source

Binder | EC25 | EC50
B7 | 0.0059 µg/mL | 0.0156 µg/mL
B8 | 0.0043 µg/mL | 0.0145 µg/mL
B1 | 0.0045 µg/mL | 0.0144 µg/mL
B2 | 0.0024 µg/mL | 0.008 µg/mL
B9 | 0.0075 µg/mL | 0.0252 µg/mL
B3 | 0.0081 µg/mL | 0.0273 µg/mL
B4 | 0.0296 µg/mL | 0.101 µg/mL
B10 | 0.0032 µg/mL | 0.0105 µg/mL
B5 | 0.0047 µg/mL | 0.0158 µg/mL

What follows are binders tested against T5, DENV4 VLP (strain Dominica/814669/1981) (assay: microsphere immunoassay, DENV4 VLP-coupled microspheres).

Binder | binding result
B1 | no binding (tested: 0.001 to 20 µg/mL)
B2 | no binding (tested: 0.001 to 20 µg/mL)
B3 | no binding (tested: 0.001 to 20 µg/mL)
B4 | no binding (tested: 0.001 to 20 µg/mL)
B6 | no binding (tested: 0.001 to 20 µg/mL)
B5 | no binding (tested: 0.001 to 20 µg/mL)

Molecular target: T1, ZIKV VLP (zika virus like particle, …)
Assay: not given
Remark: another data set of the same source

Binder | EC50
B1 | 0.181 µg/mL
B2 | 0.14 µg/mL
B3 | 0.677 µg/mL
B4 | 1.18 µg/mL
B5 | 0.256 µg/mL

These binders were tested against rZIKV-EDIII-1 (recombinant 6xHis-SUMO-tagged ZIKV EDIII) (Zika virus strain H/PF/2013, UniProt A0A024B7W1 589-697) (assay: Bio-layer interferometry (Octet)).

Binder | binding result
B6 | binds
